The assay addresses human transferrin receptor (human) (UniProt P02786). The assay is described as follows: MST (Monolith NT.115), dye-labelled protein, receptor titrated.
Sequence of human transferrin receptor (human) (P02786 89-760 limits assumed): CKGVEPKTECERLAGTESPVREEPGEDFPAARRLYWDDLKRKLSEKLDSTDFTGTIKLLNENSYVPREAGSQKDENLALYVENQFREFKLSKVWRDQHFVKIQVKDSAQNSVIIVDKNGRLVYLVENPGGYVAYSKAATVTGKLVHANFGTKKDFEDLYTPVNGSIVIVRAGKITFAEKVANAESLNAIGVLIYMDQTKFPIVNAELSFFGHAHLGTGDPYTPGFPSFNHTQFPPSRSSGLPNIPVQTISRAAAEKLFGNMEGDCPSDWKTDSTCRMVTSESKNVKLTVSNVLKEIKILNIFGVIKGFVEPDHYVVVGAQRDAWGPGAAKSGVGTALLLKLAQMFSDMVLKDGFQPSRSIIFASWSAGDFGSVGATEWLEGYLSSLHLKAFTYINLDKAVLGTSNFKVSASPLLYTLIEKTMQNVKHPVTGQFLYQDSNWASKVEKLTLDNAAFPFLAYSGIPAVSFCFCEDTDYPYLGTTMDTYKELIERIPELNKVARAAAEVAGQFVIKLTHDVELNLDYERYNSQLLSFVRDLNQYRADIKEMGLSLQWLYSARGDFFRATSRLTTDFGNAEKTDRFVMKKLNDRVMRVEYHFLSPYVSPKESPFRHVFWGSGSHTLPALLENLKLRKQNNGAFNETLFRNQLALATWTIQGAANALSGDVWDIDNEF
As a reminder, the Kd is the free concentration of one partner at which half of the binding sites on the other are occupied at equilibrium, for simple one-to-one binding. Take AB-AH1-huHF (from UniProt P02794 1-183): the Kd turned out to be 10.9 nM. In other words, the double-digit nanomolar range.
In turn, “AB-gp100-huHF (from UniProt P02794 1-183)” came in with a Kd of 29.7 nM. This Kd is about 2.7-fold higher than that of the substance before.
In the case of BC-AH1-huHF (from UniProt P02794 1-183), the Kd came out at 107 nM.
As for CD-AH1-huHF (from UniProt P02794 1-183), the Kd worked out at 3.45 nM.
Next, “CD-gp100-huHF (from UniProt P02794 1-183)”: 4.89 nM.
The result for DE-AH1-huHF (from UniProt P02794 1-183) reads 6.11 nM.

(Values after patent US20240150417A1.)
